Each block holds one binder with its values, some of them ahead of it.
Tests used:
Details in all cases: both partners purified
[1] = molecular target: T1, Hs CAF40 ARM domain (residues 19–285) (human, UniProt Q92600 19-285); assay: crystal structure; synthetic CBM peptide mixed with the purified Hs CAF40 ARM domain in an equimolar ratio; 0.1 M NaOAc pH 5.0, 17.5% PEG 4000, 0.1 M AmSO4, 18 °C; 2.15 Å
T1 construct: CAF40 (CNOT9) armadillo repeat domain, human, residues 19–285; also called CNOT9; purified CAF40 protein; source: E. coli BL21 (DE3) Star, purified (IMAC, heparin, gel filtration)

[2] = molecular target: T1, Hs CAF40 ARM domain (residues 19–285); assay: pull-down; in vitro MBP pulldown: purified MBP-tagged Roquin fragments (40 μg) with equimolar purified CCR4-NOT proteins or subcomplexes on amylose resin; 50 mM HEPES-NaOH pH 7.5, 200 mM NaCl, 2 mM DTT; 1 h; maltose elution, SDS-PAGE, Coomassie
[3] = molecular target: T2, Hs NOT module (NOT1-SHD, NOT2-C, NOT3-C) (human, UniProt A5YKK6 1833-2361; Q9NZN8 350-540; O75175 607-748); assay: as above
T2 construct: NOT1 superfamily homology domain (SHD), human, residues 1833–2361; NOT2-C, human, residues 350–540; NOT3-C, human, residues 607–748; also called NOT1-2-3; source: E. coli, purified as previously described; copies: + +
T2 sequence (A5YKK6 1833-2361, chain 1 of 3): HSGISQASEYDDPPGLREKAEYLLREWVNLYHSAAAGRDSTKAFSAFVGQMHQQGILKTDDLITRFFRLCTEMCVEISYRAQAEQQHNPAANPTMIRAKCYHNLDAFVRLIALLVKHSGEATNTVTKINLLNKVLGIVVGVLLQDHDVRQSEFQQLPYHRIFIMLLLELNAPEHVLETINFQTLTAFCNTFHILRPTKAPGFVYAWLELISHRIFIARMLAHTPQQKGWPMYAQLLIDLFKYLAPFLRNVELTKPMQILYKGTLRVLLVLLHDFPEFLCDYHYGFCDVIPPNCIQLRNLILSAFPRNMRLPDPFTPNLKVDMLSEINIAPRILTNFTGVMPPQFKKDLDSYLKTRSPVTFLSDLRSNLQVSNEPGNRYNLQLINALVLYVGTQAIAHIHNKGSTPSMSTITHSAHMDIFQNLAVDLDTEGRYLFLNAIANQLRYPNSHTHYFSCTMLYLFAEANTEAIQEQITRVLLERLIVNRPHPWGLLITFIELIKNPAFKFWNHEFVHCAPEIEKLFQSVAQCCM
T2 sequence (Q9NZN8 350-540, chain 2 of 3): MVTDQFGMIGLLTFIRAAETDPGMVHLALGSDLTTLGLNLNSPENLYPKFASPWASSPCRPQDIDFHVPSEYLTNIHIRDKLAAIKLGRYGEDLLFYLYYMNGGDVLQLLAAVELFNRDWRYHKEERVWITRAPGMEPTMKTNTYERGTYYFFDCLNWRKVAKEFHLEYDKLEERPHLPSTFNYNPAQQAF
T2 sequence (O75175 607-748, chain 3 of 3): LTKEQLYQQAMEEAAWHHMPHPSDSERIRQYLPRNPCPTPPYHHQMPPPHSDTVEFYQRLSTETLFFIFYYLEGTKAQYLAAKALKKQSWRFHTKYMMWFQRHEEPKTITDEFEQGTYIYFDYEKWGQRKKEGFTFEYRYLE

T1 sequence (Q92600 19-285): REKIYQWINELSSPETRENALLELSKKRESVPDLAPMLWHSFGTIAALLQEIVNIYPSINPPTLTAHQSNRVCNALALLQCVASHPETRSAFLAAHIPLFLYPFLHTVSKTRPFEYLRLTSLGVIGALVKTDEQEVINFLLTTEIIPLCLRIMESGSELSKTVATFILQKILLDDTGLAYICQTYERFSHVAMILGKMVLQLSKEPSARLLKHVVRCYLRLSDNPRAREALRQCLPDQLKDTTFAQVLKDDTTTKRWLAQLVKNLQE

binding result [1]: binds
B1: Dm Roquin CBM peptide (residues 790–810) (peptide, UniProt Q9VV48 790-810, looked up)
peptide: EGGIDSGMMLQLEKNLVDIVD
notes: also called Dm CBM; source: synthetic peptide (EMC Microcollections)

binding result [2]: binds
binding result [3]: binds
B2: MBP-tagged Dm Roq-CC (domain or fragment, Drosophila melanogaster, UniProt Q9VV48 702-819, looked up)
chain: NTGKDSANFVRSDSILDDDASTFDVPTGSSMLSIYGPICPKSSTTGNWNNFDLGYGGFKSDRNDSFNANKQQQPMWGRKPQLMSEDSFEGGIDSGMMLQLEKNLVDIVDPDDSGIKVD
notes: also called MBP-Roq-CC; not shown: MBP, N-terminal, kept

binding result [2]: binds
B3: MBP-tagged Dm Roquin CBM alone (peptide, UniProt Q9VV48 790-812, looked up)
chain: EGGIDSGMMLQLEKNLVDIVDPD
notes: source: E. coli BL21 (DE3) Star, purified; not shown: MBP, N-terminal, kept

binding result [3]: binds
B4: MBP-tagged Dm Roq-CN (domain or fragment, Drosophila melanogaster, UniProt Q9VV48 501-702, looked up)
chain: HYMGSPRGYLDPSLGLSPGGGLPPSHHSPITRLIVPSRYDSRFSGFGGGTPRIPSPREYQANPVAPTQRNANPPNFSVNSNLHKGYMLPASGGDVFHLANPWEQAYLAQQQHPPQHPQQQQPPSSKPNPSRPLSILPATADTSFFEKKPPNSVSIDLDRVPEVNVDAVPLFRRSNNNHNNNNSNSHNNNNNNHGSSLLFWNN
notes: as for B3
